Here are results for 19 molecules from patent US20220112288A1 (published 2022).

The target of test [1] is T1, Recombinant human CD4 (R&D Systems, Cat. 10327-CD) (human, UniProt P01730 26-390, limits assumed).
T1 construct: Bought reagent; also called huCD4
In words: BLI Octet, non-clonal supernatant on AMC sensor, 100 nM human CD4.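 Note: hybridoma supernatants diluted 1:3, antibodies captured on AMC biosensors, association and dissociation with CD4 followed, curves smoothed and fit locally with 1:1 binding model for single-point kinetics.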

The target in test [2] is T1, Recombinant human CD4 (R&D Systems, …). Description: BLI Octet, non-clonal supernatant on AMC sensor, 100 nM human CD4, 1:1 local fit.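 Note: Single-concentration kinetics per supernatant, with the 1:1 model fitted across both the association and dissociation phases of the sensorgram.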
Test [3] deals with T2, human CD4 (human, UniProt P01730 26-458).
T2 construct: whole, on cells; also called hCD4
In words: FACS, clonal hybridoma supernatant on human PBMCs.

B1: 75110_14N19A (antibody, V domains shown)
VH: QVQLQESGPGLVKPSETLSLTCTVSGGSISRYYWSWIRQPAGKGLEWIGRICTSENPNYNPALKSRVTMSVDTSKNQFSLKLSSVTAADTAVYYCARELERLNYYGMDVWGQGTTVTVSS
VL: DIQMTQFPSSLSASVGDRVTITCQASQDISNYLNWYQQKPGKAPKLLIYDASNLESGVPSRFSGRGSGTDFTFTISSLQPEDFATFYCQQYDTLPITFGQGTRLEIK
notes: Tested as non-clonal AlivaMab Mouse Kappa hybridoma supernatant, captured by anti-mouse IgG Fc sensor
With B1, the Response in test [1] worked out at 0.105. Besides, in test [2], the Kd is 19.2 nM, the koff was found to be 0.00274 s⁻¹ and the kon was 143000 M⁻¹ s⁻¹.

B2: 75110_02E08A (antibody, V domains shown)
VH: QVQLQESGPGLVKPSETLSLTCTVSGGSISTYYWTWIRQPAGKGLEWIGRVYTSGDTNYNPSLKSRVAMSLDTSKNQFSLKLSSVTAADTAVYYCARDSGALYSWNYGDAFDIWGQGTMVTVSS
VL: DIQMTQSPSAMSASVGDRVTITCRASQDISNYLAWFQQKPGKVPKRLIYAASSLQSGVPSRFSGSGSGTEFTLTISSLQPEDFATYYCLQHNSYPRTFGQGTKVEIK
notes: Tested as clonal hybridoma supernatant (AlivaMab Mouse Kappa; anti-mouse Fc detection)
Take B2: in test [3], the “% CD4 Stain” value was determined as 35.4% and the “gMFI of CD4+” value was determined as 115000 gMFI.

B3: 75110_02K11A (antibody, V domains shown)
VH: QVQLQESGPGLVKPSQTLSLTCTVSGGSISSGFYYWTWIRQHPGKGLEWIGYISYSGNTYYNPSFKSRLTISVDTSKSQFSLKLSSVTAADTAVYYCARDRPSNFDAFDIWGQGTMVTVSS
VL: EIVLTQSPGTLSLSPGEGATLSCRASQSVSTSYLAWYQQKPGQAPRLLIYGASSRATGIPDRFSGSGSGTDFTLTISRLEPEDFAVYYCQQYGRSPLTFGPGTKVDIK
notes: Tested as clonal hybridoma supernatant (AlivaMab Mouse Kappa; anti-mouse Fc detection); also called Sib3.1
Turning to B3, in test [3], the “% CD4 Stain” value is 28.2% and the “gMFI of CD4+” value worked out at 203000 gMFI.

B4: 75110_11D03A (antibody, V domains shown)
VH: EVQLVESGGGLVQPGGSLRLSCAASGFTFSSYWMSWVRQAPGKGLEWVANINQDGNEKYYVDSVKGRFTISRDNAKNSLFLQMNSLRAEDTAVYYCAREGGQWLALDYWGQGALVTVSS
VL: DIQMTQSPSSVSASVGDRVTITCRASQGISSWLAWYQQKPGKAPKFLISGASSLQSGVPSRFSGSGSGTDFTLTISSLQPEDFATYYCQQANSFPWTFGQGTKVEIK
notes: as for B1
Turning to B4, in test [1], the Response came out at 0.177. In test [2], the Kd is 4.67 nM, the koff turned out to be 0.000524 s⁻¹ and the association rate constant (kon) turned out to be 112000 M⁻¹ s⁻¹.

B5: 75110_01J09A (antibody, V domains shown)
VH: EVQLVESGGGLVQPGGSLRLSCVASGFTFSSYWMSWVRQAPGKGLEWVANTKEDGSDKYYVDSVKGRFTICRDNAKNSLYLQMNSLRAEDTAVYYCAREGGQWLALDYWGQGTLVTVSS
VL: DIQMTQSPSSVSASVGDRVTINCRASQGISSWLAWYQQKPGKAPNLLIFGASSLQSGVPSRFSGSGFGTDFSLTITTLQPEDFATYHCQQANSFPWTFGQGTKVEIK
notes: Tested as clonal hybridoma supernatant (AlivaMab Mouse Kappa; anti-mouse Fc detection); also called Sib2.2
As to B5, in test [3], the “% CD4 Stain” value amounted to 34.8% and the “gMFI of CD4+” value stood at 143000 gMFI.

B6: 75110_01A06A (antibody, V domains shown)
VH: EVQLVESGGGLVQPGGSLRLSCAASGFTFSSYWMSWVRQAPGKGLEWVANINEDGNEKYYVDSVKGRLTISRDNAKNSLYLQMNSLRAEDTAVYFCAREGGQWLSLDYWGQGALVTVSS
VL: DIQMTQSPSSVSASVGDRVSITCRASQGISSWLAWYQQKPGKAPKILIYGASSLQSGVPSRFSGSGSGTDFTLTISSLQPEDFATYYCQQANSFPWTFGQGTKVEIK
notes: as for B1
With B6, the Response in test [1] came to 0.28. Moreover, in test [2], the dissociation constant Kd came to 11 nM, the koff worked out at 0.0013 s⁻¹ and the kon is 120000 M⁻¹ s⁻¹.

B7: 75110_03D16A (antibody, V domains shown)
VH: EVQLVESGGGLVQPGGSLRLSCAASGFTFSSYWMSWVRQAPGKGLEWVANINQDGGEKYYVDSVKGRFTISRDNAKNSLYLQMNSLRAEDTAVYYCVREGGQWLALDYWGQGTLVTVSS
VL: DIQMTQSPSSVSASVGDRVTITCRASQGISSWLTWYQQKPGKAPKFLIYAASSLQSGVPSRFSGSGFGTDFTLTISSLQPEDFATYYCQQANSFPWTFGQGTKVEIK
notes: as for B1
Regarding B7, the Response in test [1] worked out at 0.25. Also, in test [2], the Kd was determined as 6 nM, the off-rate constant (koff) is 0.0013 s⁻¹ and the kon was found to be 220000 M⁻¹ s⁻¹.

B8: 75110_07H07A (antibody, V domains shown)
VH: EVQVVESGGGLVQPGGSLRLSCAASGFTFSSYWMSWVRQAPGKGLEWVANIKEEGSEKYYVDSVKGRFTISRDNAKNSLYLQMNSLRAEDTAVYYCVREGGQWLALDYWGQGTLVTVSS
VL: DIQMTQSPSSVSGSVGDRVTITCRASQGISSWLAWYQQKPGKAPKLLIFGASSLQSGVPSRFSGSGSGTDFTLTISSLQPEDFATYYCQQANSFPWTFGQGTKVQIK
notes: as for B1
Take B8: in test [1], the Response was 0.2. In addition, in test [2], the dissociation constant Kd was 3.1 nM, the koff came to 0.00035 s⁻¹ and the kon amounted to 110000 M⁻¹ s⁻¹.

B9: 75110_04K10A (antibody, V domains shown)
VH: EVQLVESGGGLVQPGGSLRLSCAASGFTFSSYWMSWVRQAPGKGLEWVANINQDGSEKYYVDSVKGRFTISRDNAKNSLYLQLNSLRAEDTAMYYCAREGGQWLSLDYWGQGTLVTVSS
VL: DIQMTQSPSSVSASVGDRVTITCRASQGISSWLAWYQQKPGKAPKVLIYGVSSFQSGVPSRFSGSGSGTDFILTISSLQPEDFATYYCQQANSFPWTFGQGTKVEIK
notes: as for B1
As for B9, in test [1], the Response turned out to be 0.23. Also, in test [2], the Kd was determined as 6.3 nM, the off-rate constant (koff) was determined as 0.0018 s⁻¹ and the kon is 290000 M⁻¹ s⁻¹.

B10: 75110_02N15A (antibody, V domains shown)
VH: EVQLVESGGGLVQPGGSLRLSCAASGFTFSSYWMSWVRQAPGKGLEWVANINEDGNEKYYVDSVKGRFTISRDNAKNSLFLQMNSLRAEDTAVYFCAREGGQWLALDHWGQGALVTVSS
VL: DIQMTQSPSSVSASVGDRVTITCRASQGISSWLAWYQQKPGKAPKFLISGASSLQSGVPSRFSGSGSGTDFTLTISSLQPEDFATYYCQQANSFPWTFGQGTKVEFK
notes: as for B1
Consider B10, for which the Response in test [1] was 0.16. Moreover, in test [2], the Kd was determined as 6.7 nM, the koff stood at 0.00069 s⁻¹ and the association rate constant (kon) came to 100000 M⁻¹ s⁻¹.

B11: 75110_03C01A (antibody, V domains shown)
VH: QVQLQQWGAGLLKPSETLSLTCAVYGGSFSGYYWSWIRQSPGKGLEWIGEINQSGSTNYNPSLKSRVTISVDTSKDQFSLKLSSVTAADTAVYYCARVINWFDSWGQGSLVTVSS
VL: DIQMTQSPSSVSASVGDRVTITCRASQGISSWLAWYQQKPGNAPKLLIYDASSFQSGVPSRFSGSGSGTDFTLTISSLQTEDFATYYCQQANSFPYTFGQGTKLEIK
notes: Tested as clonal hybridoma supernatant (AlivaMab Mouse Kappa; anti-mouse Fc detection); also called Sib6.2
As for B11, in test [3], the “% CD4 Stain” value stood at 36.1% and the “gMFI of CD4+” value turned out to be 169000 gMFI.

B12: 75110_14I16A (antibody, V domains shown)
VH: QVQLQESGPGLVKPSETLSLTCTVSNGSISSYYWSWIRQSAGKGLEWIGRIYTSGSTNYNPSLKSRVTMLVDTSKNQFSLKLSSVTAADTAVYYCARDREDYYYYGMDVWGQGTTVTVSS
VL: DIQMTQSPSSLSASVGDRVTITCQASHDISNYLNWYQQKPGKAPKLLLYYASNLETGVPSRFSGSGSGTDFTFTITSLQPEDIGTYSCQQYDNLPLTFGGGTKVEIK
notes: as for B1
B12: the Response in test [1] worked out at 0.0852. Further, in test [2], the Kd was < 0.001 nM, the dissociation rate constant (koff) is < 1e-07 s⁻¹ and the kon came to 42700 M⁻¹ s⁻¹.

B13: 75110_02E22A (antibody, V domains shown)
VH: QVQLQESGPGLVKPSETLSLTCTVSGGSISSFYWSWIRQPAGKGLEWIGRIYTSGSTNYNPSLKSRVTMSVDTSKNQFSLKLSSVTAADTAVYYCARELEKRNYYGMDVWGQGTTVTVSS
VL: DIQMTQSPSSLSASVGDRVTITCQASHDISNYLNWYQQKPGKAPKLLIFDASTLETGVPSRFSGSGSGTYFTFTIRSLQPEDIATYYCQQYDSLPLTFGGGTKVEIK
notes: Tested as clonal hybridoma supernatant (AlivaMab Mouse Kappa; anti-mouse Fc detection); also called Sib7.1
On to B13, for which, in test [3], the “% CD4 Stain” value was 32.8% and the “gMFI of CD4+” value stood at 268000 gMFI.

B14: 75110_01L08A (antibody, V domains shown)
VH: QVQLQESGPGLVKPSETLSLTCTVSGGSISHYYWSWIRQPPGKGLEWIGYIHYSGTTNYNPSLKSRVTISVDTSKNQLSLKLRSVTAADTAVYYCARDQGFSSGGMDVWGQGTTVTVSS
VL: not shown
notes: as for B2
Consider B14, for which, in test [3], the “% CD4 Stain” value stood at 35.3% and the “gMFI of CD4+” value was 208000 gMFI.

B15: 75110_02I16A (antibody, V domains shown)
VH: QVQLQQWGAGLLKPSETLSLTCDVYGGSFSGYYWTWIRQPPGKGLEWIGEINHSGTTNSNPSLKSRVTISVDTSKSQFSLRLSSVTAADTAVYFCTRELNWFDPWGQGTLVTVSS
VL: DIQMTQSPSSVSASVGDRVTITCRASQDIANWLAWYQQKPGKAPQLLIYAASSLLGGVPSRFSGSGSGADFTLTISSLHPEDFATYYCQQANSFPYTFGQGTKLEIK
notes: Tested as clonal hybridoma supernatant (AlivaMab Mouse Kappa; anti-mouse Fc detection); also called 75110_02116A
On to B15, for which, in test [3], the “% CD4 Stain” value was 36.1% and the “gMFI of CD4+” value is 145000 gMFI.

B16: 75110_14P05A (antibody, V domains shown)
VH: EVQLVESGGGLVQPGGSLRLSCAASGFTFSSYDVHWVRQATGKGLEWVSTIGTAGDTYYPGSVKGRFTISRENAKNSLYLQMNSLRAGDTAVYYCARGGFYYYGMDVWGQGTTVTVSS
VL: EIVLTQSPGTLSLSPGERATLSCRASQSVSSSYLAWYQQKPGQTPRLLIYGASSRATGIPDRFSGSGSGTDFTLTISRLEPEDFAVFYCQQSGSSPFTFGPGTKVDVK
notes: as for B1
B16: the Response in test [1] is 0.149. Also, in test [2], the equilibrium dissociation constant (Kd) is 12.3 nM, the off-rate constant (koff) came to 0.00185 s⁻¹ and the kon came to 150000 M⁻¹ s⁻¹.

B17: 75110_01J17A (antibody, V domains shown)
VH: EVQLVESGGGLVQPGGSLRLSCAASGFTFSSYDMHWVRQGTGKGLEWVSTIGTADDTYYPGSVKGRFTISRENAENSLYLQMNSLRAGDTAVYYCARGGDYYYGMDVWGQGTTVTVSS
VL: EIVLAQSPGTLSLSPGERATLSCRASQSVYISYLAWYQQKPGQAPRLLIYGASSRATGIPDRFSGSGSGTDFTLTITRLEPEDFAVYYCQQFGSSPFTFGPGTKVDFK
notes: Tested as clonal hybridoma supernatant (AlivaMab Mouse Kappa; anti-mouse Fc detection); also called Sib1.12
Consider B17, for which, in test [3], the “% CD4 Stain” value is 35.2% and the “gMFI of CD4+” value was 167000 gMFI.

B18: 75110_10L22A (antibody, V domains shown)
VH: EVQLVESGGGLVQPGGSLRLSCAASGFTFSSYDMHWVRQATGKGLEWVSTIGTAGDTYYPGSVKGRFTISRENAKNSLYLQMNGLRAGDTAVYYCARGNYFYYGVDVWGQGTTVTVSS
VL: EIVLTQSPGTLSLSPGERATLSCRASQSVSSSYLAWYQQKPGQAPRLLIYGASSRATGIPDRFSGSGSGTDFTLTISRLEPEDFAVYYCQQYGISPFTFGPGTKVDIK
notes: as for B1
On to B18, for which the Response in test [1] is 0.113. Besides, in test [2], the Kd came out at 117 nM, the koff was found to be 0.0065 s⁻¹ and the association rate constant (kon) was 55700 M⁻¹ s⁻¹.

B19: 75110_01E08A (antibody, V domains shown)
VH: EVQLVESGGGLVQPGGSLRLSCAASGFTFNNYDMHWVRQATGKGLEWVSTIGTAGDTYYPASVKGRFTIYRENAKNSLYLQMNSLRAGDTAVYYCARGGDYYYGMDVWGQGTTVTVSS
VL: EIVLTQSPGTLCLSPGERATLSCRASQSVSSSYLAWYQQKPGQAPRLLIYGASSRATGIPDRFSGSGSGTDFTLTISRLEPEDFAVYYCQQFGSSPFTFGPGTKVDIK
notes: as for B1
On to B19, for which the Response in test [1] amounted to 0.1. Further, in test [2], the dissociation constant (Kd) worked out at 10 nM, the dissociation rate constant (koff) is 0.0014 s⁻¹ and the kon amounted to 140000 M⁻¹ s⁻¹.
